Laboratory results: patent US20230416361A1 (MIROBIO, published 2023)
Where a chain is given by its changes, count along the chain named. Names may count otherwise.

T1: human CD200RLa full length construct on HEK293T cells (human, UniProt Q6Q8B3 24-271)
T1 construct: whole, on cells; also called CD200R1L
T1 sequence (looked up): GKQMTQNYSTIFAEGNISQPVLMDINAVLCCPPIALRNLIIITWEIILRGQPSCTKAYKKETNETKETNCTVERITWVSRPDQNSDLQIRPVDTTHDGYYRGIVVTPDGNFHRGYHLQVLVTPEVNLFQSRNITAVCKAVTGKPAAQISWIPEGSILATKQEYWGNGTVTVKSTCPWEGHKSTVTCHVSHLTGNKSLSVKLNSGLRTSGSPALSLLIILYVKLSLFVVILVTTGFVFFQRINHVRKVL

T2: human CD200RLa extracellular domain fused to mouse CD80 transmembrane and intracellular tail, on HEK293T cells (human; mouse, UniProt Q6Q8B3 24-239; Q00609 247-306, limits assumed)
T2 construct: extracellular domain;domain: transmembrane and intracellular tail; also called human CD200RLa chimeric construct
T2 sequence (looked up): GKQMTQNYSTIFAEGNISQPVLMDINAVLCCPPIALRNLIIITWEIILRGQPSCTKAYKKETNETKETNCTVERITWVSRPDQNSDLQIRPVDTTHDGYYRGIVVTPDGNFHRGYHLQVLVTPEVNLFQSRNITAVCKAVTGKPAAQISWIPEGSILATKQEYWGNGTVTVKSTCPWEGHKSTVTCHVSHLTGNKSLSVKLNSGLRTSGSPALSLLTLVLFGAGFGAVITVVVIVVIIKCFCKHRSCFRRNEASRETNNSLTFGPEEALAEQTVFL

T3: cyno CD200RLa full length construct on cells (cynomolgus, UniProt A0A2K5W6R0 30-275)
T3 construct: whole, on cells; also called cynomolgus CD200RLa expressed on cells
T3 sequence: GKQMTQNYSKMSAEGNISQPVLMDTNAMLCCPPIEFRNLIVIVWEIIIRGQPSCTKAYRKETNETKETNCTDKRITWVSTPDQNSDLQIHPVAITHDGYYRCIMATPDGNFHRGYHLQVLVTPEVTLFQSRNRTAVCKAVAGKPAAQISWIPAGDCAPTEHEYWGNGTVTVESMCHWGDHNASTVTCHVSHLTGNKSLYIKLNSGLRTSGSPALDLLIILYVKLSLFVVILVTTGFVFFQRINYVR

T4: monomeric soluble human CD200R extracellular domain (human, UniProt Q8TD46 29-265)
T4 construct: extracellular domain; also called hCD200R; monomeric CD200R protein
T4 sequence (looked up): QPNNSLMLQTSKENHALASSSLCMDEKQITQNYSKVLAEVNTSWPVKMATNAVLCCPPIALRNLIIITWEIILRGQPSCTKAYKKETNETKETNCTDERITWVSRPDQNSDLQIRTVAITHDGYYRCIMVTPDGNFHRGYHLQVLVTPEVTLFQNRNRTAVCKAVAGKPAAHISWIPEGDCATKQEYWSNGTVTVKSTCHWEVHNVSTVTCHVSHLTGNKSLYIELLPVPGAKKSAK

T5: extracellular domain of cyno CD200R (SinoBiological 11232-C08H, Met1-Leu267) (cynomolgus, UniProt G7NZT0 25-268)
T5 construct: range 1-267; Bought protein
T5 sequence: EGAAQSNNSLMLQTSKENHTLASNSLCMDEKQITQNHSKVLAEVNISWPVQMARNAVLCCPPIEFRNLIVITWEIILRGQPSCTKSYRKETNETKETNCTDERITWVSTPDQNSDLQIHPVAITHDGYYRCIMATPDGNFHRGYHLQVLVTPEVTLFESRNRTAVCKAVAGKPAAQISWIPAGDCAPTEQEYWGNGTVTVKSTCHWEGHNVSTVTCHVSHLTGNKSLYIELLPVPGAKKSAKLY

T6: soluble cynomolgus macaque CD200R1 extracellular domain (cynomolgus macaque, UniProt G7NZT0 29-266)
T6 construct: extracellular domain; also called Cynomolgus CD200R
T6 sequence: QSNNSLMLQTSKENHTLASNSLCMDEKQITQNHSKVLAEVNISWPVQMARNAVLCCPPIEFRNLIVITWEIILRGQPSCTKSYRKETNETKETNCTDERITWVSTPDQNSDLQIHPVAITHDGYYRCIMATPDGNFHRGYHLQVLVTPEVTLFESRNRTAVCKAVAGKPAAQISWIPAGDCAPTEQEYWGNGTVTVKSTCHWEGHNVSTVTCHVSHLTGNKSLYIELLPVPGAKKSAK

B1: hu2131_v20 (antibody, human IgG1, V domains shown)
VH: QVQLVQSGAEVKKPGASVKVSCKASGHTFTSYWMHWVRQAPGQGLEWMGNIYPGSGSINYDEKFQGRVTMTADTSTSTVYMELSSLRSEDTAVYYCLTMTGTSWGRGTLVTVSS
VL: DIQMTQSPSSLSVSVGDRVTITCQASQGTPINLHWFQQKPGKAPKLLISGASNLEDGVPSRFSGSGSGTEFTFTISSLQPEDAATYYCLQFTYIPWTFGQGTKLEIK
B2: hu2131_v20_D56S hIgG1k P238D (antibody)
heavy: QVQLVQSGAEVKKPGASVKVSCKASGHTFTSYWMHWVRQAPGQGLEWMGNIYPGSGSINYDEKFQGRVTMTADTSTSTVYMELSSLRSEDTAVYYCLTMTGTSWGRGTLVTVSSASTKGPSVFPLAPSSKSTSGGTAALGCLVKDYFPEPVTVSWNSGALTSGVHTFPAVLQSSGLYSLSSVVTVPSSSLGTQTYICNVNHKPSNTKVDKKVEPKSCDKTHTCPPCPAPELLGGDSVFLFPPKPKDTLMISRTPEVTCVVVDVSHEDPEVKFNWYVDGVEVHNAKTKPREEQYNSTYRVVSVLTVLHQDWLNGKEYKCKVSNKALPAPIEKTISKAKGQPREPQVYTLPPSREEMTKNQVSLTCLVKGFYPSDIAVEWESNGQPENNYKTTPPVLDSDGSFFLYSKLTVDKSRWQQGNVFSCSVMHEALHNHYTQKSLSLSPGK
light: DIQMTQSPSSLSVSVGDRVTITCQASQGTPINLHWFQQKPGKAPKLLISGASNLESGVPSRFSGSGSGTEFTFTISSLQPEDAATYYCLQFTYIPWTFGQGTKLEIKRTVAAPSVFIFPPSDEQLKSGTASVVCLLNNFYPREAKVQWKVDNALQSGNSQESVTEQDSKDSTYSLSSTLTLSKADYEKHKVYACEVTHQGLSSPVTKSFNRGEC
notes: also called VH4/VL5-D56S
B3: hu2131_Q1E_M99G hIgG1k P238D (antibody, V domains shown)
VH: B1 VH with Q1E, M99G
VL: DIQMTQSPSSLSVSVGDRVTITCQASQGTPINLHWFQQKPGKAPKLLISGASNLESGVPSRFSGSGSGTEFTFTISSLQPEDAATYYCLQFTYIPWTFGQGTKLEIKR
B4: 2131_chimera (antibody, V domains shown)
VH: QVQLQQPGSELVRPGASVKLSCKASGHTFTSYWMHWVKQRPGQGLEWIGNIYPGSGSINYDEKFKSKAKLTVDTSSRTAYMQLSSLTSEDSAVYYCLTMTGTSWGQGTLVTVSA
VL: DVQMIQSPSSLSASLGDIVTMTCQASQGTPINLHWFQQKPGKAPKLLISGASNLEDGVPSRFSGSRYGTAFTLTISSLEDEDMATYFCLQFTYIPWTFGGGTKLEIK
B5: anti-CD200R antibody clone 3.10.2 (mIgG1k isotype) (antibody, V domains shown)
VH: QVQLQQPGSELVRPGASVKLSCKASGYTFTSYWMHWVKQRPGQGLEWIGNIFPGSDTTNYDEKFKSKAIMTVDISSSTVYMHLSSLTSEDSAVYYCITYTGAYWGQGTLVTVSA
VL: DVQMIQSPSSLSASMGDIVTMTCQASQGTNINLHWFQQKPGKAPKLLISGGSNLEDGVPSRFSGSRYGTDFTLTISSLEDEDMATYFCLQFTYLPWTFGGGTKLDIKR
notes: Murine hybridoma antibody, IgG1 kappa
B6: anti-CD200R antibody clone 7.12.2 (mIgG1k isotype) (antibody, V domains shown)
VH: B4 VH with H27Y, S57T, I58T, K69T, R77S, L83I, L97T, M99G, G101S, S103Y
VL: B5 VL with M15L, N30S, H34N, S49Y, G51A, S52V, I75V, F91H, D105E
notes: as for B5

Legend:
[1] = target: T1, human CD200RLa full length construct on …; experiment: flow cytometry on transiently transfected HEK293T cells
Description: (§1) The binding of CD200R antibodies to human and cyno CD200R and CD200RLa constructs was assessed by flow cytometry of transiently transfected cells. CD200RLa has a charged transmembrane (TM) that is not expected to express well in the absence of appropriate binding partners. Therefore, in addition to the full length CD200RLa constructs, chimeric constructs were used consisting of the CD200RLa extracellular domain fused to mouse CD80 transmembrane and intracellular tail to enable cell surface expression.
(§2) HEK293T cells were plated out at 1 million cells per well in a 6 well plate the day before transfection. The following day cells were transfected with CD200R constructs using 2.5 μg plasmid DNA (a pcDNA3.4 vector containing the CD200R construct sequence) and 10 μl Lipofectamine 2000 (mixed in 200 μl Optimem for 5 minutes then added dropwise to cells). 48 hours after transfection, cells were collected by vigorous pipetting in cold PBS and 50,000 cells pelleted per well in 96 well U bottom plates.
(§3) Cells were then washed and stained for 30 minutes with a secondary staining mix containing a live/dead marker (Near IR LD, Biolegend cat #423106) and APC anti-hIgG (clone QA19A42, Biolegend cat #366906) or AF647 anti-mIgG1 (clone RMG1-1, cat #406618). As a control, cells were separately stained with the commercial anti-CD200R clone OX108 directly labelled with AF647 (Biolegend cat #329308). Finally, cells were washed and resuspended in FACS buffer for acquisition on a FACS Celesta flow cytometer.

[2] = target: T2, human CD200RLa extracellular domain …; experiment: as above
Description: as §1, §2, §3

[3] = target: T3, cyno CD200RLa full length construct on …; experiment: as above
Description: as §1, §2, §3

[4] = target: T4, monomeric soluble human CD200R …; experiment: BLI (Octet), antibody on anti-human Fc probes, monomeric CD200R in solution, 25 C, 1:1 global fit
Description: Humanised variant antibodies combining the different heavy and light variable domains described in Example 6 were produced by transient transfection of HEK293 cells. All antibodies were expressed on a human IgGI isotype with a P238D Fc mutation. The unpurified supernatants were analysed by Protein A-HPLC to determine the antibody concentrations, as a measure of expression yield. […] Binding affinity of humanized variants to human CD200R was assessed by bio-layer interferometry on an Octet R4 instrument. Each antibody was captured directly onto anti-human Fc capture probes (Sartorius 18-5060) for 60 sec followed by baseline setting in assay buffer (DPBS, 0.01% Polysorbate-20). Association of monomeric CD200R protein to immobilised antibodies was measured in 4 different protein concentrations (300, 100, 30 and 10 nM in assay buffer) at 25° C., with an association time of 120s and dissociation of 120s in assay buffer only. A reference probe with no antibody immobilised was used for background subtraction. Kinetic rate constants and binding KDs were calculated using Octet Analysis Studio 12 software. Global curve fitting based on all 4 concentrations using a 1:1 model was performed, from which kon and koff were obtained to calculate KD using the relationship KD=koff/kon.

[5] = target: T5, extracellular domain of cyno CD200R …; experiment: SPR (Biacore), antibody captured by anti-human Fc, CD200R extracellular domain injected, single cycle kinetics, 25 C
Description: This example investigates in vitro CD200R binding of anti-CD200R antibodies by surface plasmon resonance. Surface plasmon resonance binding experiments with purified anti-CD200R antibody (expressed on a hIgG1 isotype with a P238D Fc mutation) were performed using the Biacore T200 and 8K+instruments. Anti-human Fc antibody (Life Technologies H10500) was amine-coupled to a C1 sensor chip using standard amine-coupling chemistry. Residual activated carboxyls were blocked with ethanolamine. Antibodies with a human Fc were then captured on these surfaces.
To assess the binding of hu2131_v20_D56S antibody and variants (antibody hu213l_Q1E and antibody hu2131_Q1E_M99G) to the extracellular domains of human CD200R (Met29-Leu243) and cyno CD200R (SinoBiological 11232-C08H, Metl-Leu267), 10-30 RUs of antibody were captured. CD200R proteins were diluted into running buffer (10 mM HEPES, 150 mM NaCl, 3 mM EDTA, 0.01% Polysorbate 20, pH 7.4 with 0.1 mg/mL BSA) (full-length antibody sequences are disclosed in Table 10). Five three-fold serial dilutions were performed for each CD200R, with highest concentration being 100 nM. Samples were injected using a single cycle kinetics scheme (Karlsson Anal Biochem et al 2006). Data were analyzed using Biacore Insight Evaluation Software and fit to a simple kinetic model, from which kon and koff were obtained to calculate KD using the relationship KD=koff/kon. Experiments were run at 25° C.

[6] = target: T4, monomeric soluble human CD200R …; experiment: SPR, captured antibody, soluble monomeric receptor injected, single cycle kinetics, 37 C
Description: (§4) The binding affinity and kinetics of the CD200R antibodies of the present disclosure to human or cynomolgus CD200R were determined by surface plasmon resonance (SPR) using the Biacore T200 (GE Healthcare). Mouse antibody capture kit (GE Healthcare) was used to coat a Series S CM5 Sensor Chip (GE Healthcare) with polyclonal anti-mouse IgG.
(§5) Anti-CD200R antibody was captured onto the biosensor surface and a negative control antibody (clone Mopc21; Biolegend) captured in the reference channel. Various concentrations of monomeric soluble human CD200R extracellular domain, soluble cynomolgus macaque CD200R1 extracellular domain or soluble cynomolgus macaque CD200RLa (a highly homologous activating receptor) were injected over the immobilized antibodies in the buffer 10 mM Hepes, 150 mM NaCl, 0.005% v/v Surfactant P20, pH 7.4 (HBS-P) at 37° C., in a single cycle kinetics analysis. Association and dissociation rates were fitted using BiaEvaluation Software (GE Healthcare) after reference and blank subtractions, and dissociation constants were calculated (Table 2).

[7] = target: T6, soluble cynomolgus macaque CD200R1 …; experiment: as above
Description: as §4, §5

Binder | binding result [1] | binding result [2] | binding result [3] | Kd [4] | Kd [5] | koff [5] | kon [5] | Kd [6] | Kd [7]
B1 | no binding (tested: 10 ug/ml) | no binding (tested: 10 ug/ml) | no binding (tested: 10 ug/ml) | 0.00276 nM | – | – | – | – | –
B2 | no binding (tested: 10 ug/ml) | no binding (tested: 10 ug/ml) | no binding (tested: 10 ug/ml) | 0.00206 nM | 0.041 nM | 1.06e-05 s⁻¹ | 258000 M⁻¹ s⁻¹ | – | –
B3 | no binding (tested: 10 ug/ml) | no binding (tested: 10 ug/ml) | no binding (tested: 10 ug/ml) | – | 0.0917 nM | 2.23e-05 s⁻¹ | 244000 M⁻¹ s⁻¹ | – | –
B4 | no binding (tested: 10 ug/ml) | no binding (tested: 10 ug/ml) | no binding (tested: 10 ug/ml) | 0.00304 nM | – | – | – | – | –
B5 | – | – | – | – | – | – | – | 0.4 nM | 0.0015 nM
B6 | – | – | – | – | – | – | – | 2.9 nM | 0.708 nM
